# Source: patent US20190194358A1 (ARIZONA BOARD OF REGENTS A BODY CORPORATE OF THE STATE OF …, published 2019)
# Where two headings read alike, the source gives them in different places. Ends that are not written are not given here.
# B1: SYN21-22 (designed binder)
# peptide 1: QYHHFMNLKRQGRAQAYGSG
# peptide 2: HAYKGPGDMRRFNHSGMGSG
# modifications: also: both chains joined by C-terminus to the amines of a branching Lys, Lys-Cys linker with biotinylated Cys thiol
# notes: Lysine linker followed by cysteine; the thiol of the cysteine biotinylated for the protein array; also called anti-TRF synbody
# B2: TNF1 D4S+P5Y+S11K triple mutant (peptide)
# peptide: FERSYLMMPWKFLQSRQGSC
# notes: also called D4S + P5Y + S1IK (so in the source)
# B3: TBPM023 (peptide)
# peptide: AHKVVPQRQMRHAYSRYGSC
# notes: Clone from mRNA display on a doped TRF26 library; also called TBPMO23
# B4: TRF26 P6Y+H12F double mutant (peptide)
# peptide: AHKVVYQRQIRFAYNRYGSC
# notes: also called P6Y + 1112F (so in the source)
# B5: TNF1-TNF4-KC-stBu (designed binder)
# peptide 1: MKSIIPMSVAQHQGPIKGSG
# peptide 2: FMNYPIKVPILVVPIGRGSG
# modifications: not fully specified (C-terminus, bridges); also: chain 1 C-terminus on Lys α-amine, chain 2 C-terminus on same Lys ε-amine (branched dimer)
# notes: Lysine linker followed by Cys(StBu); also called TNFa1-TNFa 4- KC(stBu)
# B6: peptide of FIG. 60B (peptide)
# peptide: NIRMLLRFTVFPAQKLIGSC
# notes: Unpurified library peptide (~50 to 70% pure)
# B7: BP2 on dsDNA (peptide)
# affinity element BP2: EGEWTEGKLSLRGSC
# modifications: C-terminal Cys joined through SMCC to the DNA linker
# notes: also called BP2 alone conjugated to the double-stranded DNA linker
# Columns and labels:
# [1] = target: T1, SC1 Transcription factor 19 (human, UniProt Q9Y242); assay: Invitrogen ProtoArray Human Protein Microarray v4.0; biotinylated synbody, fluorescently labelled streptavidin; fluorescence intensity
# T1 construct: GST fusion on the array
# T1 sequence (looked up): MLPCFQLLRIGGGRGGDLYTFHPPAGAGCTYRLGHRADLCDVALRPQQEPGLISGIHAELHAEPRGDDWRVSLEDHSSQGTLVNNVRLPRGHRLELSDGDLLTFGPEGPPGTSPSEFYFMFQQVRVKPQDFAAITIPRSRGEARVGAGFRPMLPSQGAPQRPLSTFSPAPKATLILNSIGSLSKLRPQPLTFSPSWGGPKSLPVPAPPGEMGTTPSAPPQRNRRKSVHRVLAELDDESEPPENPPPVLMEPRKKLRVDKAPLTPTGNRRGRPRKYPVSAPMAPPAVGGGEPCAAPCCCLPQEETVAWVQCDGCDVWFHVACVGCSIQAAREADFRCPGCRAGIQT
# Protocol: (§1) The prescribed cover slip was placed over the array and adjusted to remove air bubbles. The array was incubated in a 50 ml conical tube, printed side up, for 1.5 hours at 4 C without shaking. The array was then removed from the conical tube inserted diagonally into the array chamber, kept on ice. 8 ml probing buffer was added to the chamber wall. The cover slip was removed and the array was incubated in probing buffer for 1 minute on ice. The probing buffer was decanted and drained. Two further washings were performed adding 8 ml probing buffer, incubating on ice for 1 minute, and decanting and draining. 5 nM fluorescently labeled streptavidin diluted in 6 ml probing buffer was incubated on the array for 30 minutes on ice in the dark, after which the solution was decanted and drained. Three wash steps were performed, each by adding 8 ml probing buffer, incubating for 1 minute on ice, decanting, and draining. The array was removed from the chamber, centrifuged at 800×g for 5 minutes at room temperature. The array was dried in the dark for 60 minutes at room temperature, after which it was scanned using a fluorescent microarray scanner and data was taken and analyzed.
# GRP58 = target: T2, GRP58 (human, UniProt P30101 25-505, limits assumed); assay: as above
# T2 construct: GST fusion adsorbed on a nitrocellulose slide
# T2 sequence (looked up): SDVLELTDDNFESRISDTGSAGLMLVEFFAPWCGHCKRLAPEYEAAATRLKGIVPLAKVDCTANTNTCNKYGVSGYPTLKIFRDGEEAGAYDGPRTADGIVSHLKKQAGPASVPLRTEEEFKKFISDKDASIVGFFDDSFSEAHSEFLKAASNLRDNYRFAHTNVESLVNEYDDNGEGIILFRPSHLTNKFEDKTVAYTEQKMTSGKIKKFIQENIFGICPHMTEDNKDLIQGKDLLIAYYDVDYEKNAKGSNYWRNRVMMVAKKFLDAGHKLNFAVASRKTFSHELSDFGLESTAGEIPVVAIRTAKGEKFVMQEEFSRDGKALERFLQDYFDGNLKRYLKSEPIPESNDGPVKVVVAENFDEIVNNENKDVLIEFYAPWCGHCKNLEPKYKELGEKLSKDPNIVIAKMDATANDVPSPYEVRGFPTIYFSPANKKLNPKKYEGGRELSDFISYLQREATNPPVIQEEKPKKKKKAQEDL
# Protocol: as §1
# PSMA3 = target: T3, PSMA3 (human, UniProt P25788); assay: as above
# T3 construct: GST fusion on the array
# T3 sequence (P25788 whole entry, the tested form may be a part): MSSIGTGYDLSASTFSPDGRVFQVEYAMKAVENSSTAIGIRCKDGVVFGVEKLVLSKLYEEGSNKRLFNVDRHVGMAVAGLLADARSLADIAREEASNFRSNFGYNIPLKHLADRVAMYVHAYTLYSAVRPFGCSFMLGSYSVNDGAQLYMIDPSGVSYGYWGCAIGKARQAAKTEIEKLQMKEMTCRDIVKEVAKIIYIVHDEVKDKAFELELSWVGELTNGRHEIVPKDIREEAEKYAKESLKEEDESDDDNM
# Protocol: as §1
# [2] = target: T4, Tumor Necrosis Factor-alpha (UniProt P01375 77-233); assay: SPR (Biacore A100), TNF-α captured, equilibrium response over a concentration series
# T4 construct: Immobilised on pipette tips or SPR chips (amine coupling or biotin capture); also called TNF-α; TNF-alpha
# T4 sequence (P01375 77-233 limits assumed): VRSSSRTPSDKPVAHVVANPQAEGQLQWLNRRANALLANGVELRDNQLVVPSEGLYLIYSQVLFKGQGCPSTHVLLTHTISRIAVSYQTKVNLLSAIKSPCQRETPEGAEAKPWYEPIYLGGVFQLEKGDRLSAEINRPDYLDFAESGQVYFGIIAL
# Protocol: (§2) Point-mutant libraries were prepared in 96-well stock plates From the stock plate, peptides were diluted to 50 μM concentration in Biacore HBS-EP buffer (GE Healthcare, Piscataway, N.J.) containing 1 mg/ml carboxymethyl-dextran (Sigma-Aldrich, St. Louis, Mo.) to reduce non-specific binding to the CM-5 SPR chip surface. TNF-αt was captured on a CM-5 chip surface at different capture levels on spots 1, 2, 4, and 5 across all four flow cells corresponding to a 40-200 RU range of predicted Rₘₐₓ binding responses. Spot 3 contained only immobilized neutravidin and served as a reference spot.
# (§3) Purified point-mutant affinities were measured on the Biacore A100 using SPR equilibrium binding response across a series of peptide concentrations on an SPR chip with TNF-α captured as described above.
# [3] = target: T4, Tumor Necrosis Factor-alpha; assay: SPR, kinetic fits of sensorgrams
# [4] = target: T4, Tumor Necrosis Factor-alpha; assay: fluorescence anisotropy; fluorescence anisotropy
# [5] = target: T4, Tumor Necrosis Factor-alpha; assay: SPR; reference TNF1 lead peptide
# Protocol: as §2, §3
# [6] = target: T4, Tumor Necrosis Factor-alpha; assay: SPR, kinetic fits of several sensorgrams; Kd from kinetic fits, not equilibrium responses
# [7] = target: T4, Tumor Necrosis Factor-alpha; assay: SPR (Biacore A100), TNF-α captured, equilibrium response over a concentration series; remark: listed apart in the source
# Protocol: as §2, §3
# [8] = target: T4, Tumor Necrosis Factor-alpha; assay: SPR-derived binding energies
# [9] = target: T4, Tumor Necrosis Factor-alpha; assay: SPR, kinetic fits of sensorgrams (printed 'kon' in a sentence on the off-rate)
# [10] = target: T4, Tumor Necrosis Factor-alpha; assay: SPR equilibrium binding (Biacore A100), TNF-α captured on the chip
# [11] = target: T4, Tumor Necrosis Factor-alpha; assay: SPR (Biacore A100), TNF-α captured, equilibrium response over a concentration series; the cell prints '93', read as 9.3 (decimal point lost)
# Protocol: as §2, §3
# transferrin [12] = target: T5, transferrin (human, UniProt P02787 20-698); assay: SPR (Biacore A-100), biotinylated transferrin captured on Neutravidin, unpurified peptide injected for 60 s
# T5 construct: also called TRF; pooled human transferrin (Sigma)
# T5 sequence (P02787 20-698 limits assumed): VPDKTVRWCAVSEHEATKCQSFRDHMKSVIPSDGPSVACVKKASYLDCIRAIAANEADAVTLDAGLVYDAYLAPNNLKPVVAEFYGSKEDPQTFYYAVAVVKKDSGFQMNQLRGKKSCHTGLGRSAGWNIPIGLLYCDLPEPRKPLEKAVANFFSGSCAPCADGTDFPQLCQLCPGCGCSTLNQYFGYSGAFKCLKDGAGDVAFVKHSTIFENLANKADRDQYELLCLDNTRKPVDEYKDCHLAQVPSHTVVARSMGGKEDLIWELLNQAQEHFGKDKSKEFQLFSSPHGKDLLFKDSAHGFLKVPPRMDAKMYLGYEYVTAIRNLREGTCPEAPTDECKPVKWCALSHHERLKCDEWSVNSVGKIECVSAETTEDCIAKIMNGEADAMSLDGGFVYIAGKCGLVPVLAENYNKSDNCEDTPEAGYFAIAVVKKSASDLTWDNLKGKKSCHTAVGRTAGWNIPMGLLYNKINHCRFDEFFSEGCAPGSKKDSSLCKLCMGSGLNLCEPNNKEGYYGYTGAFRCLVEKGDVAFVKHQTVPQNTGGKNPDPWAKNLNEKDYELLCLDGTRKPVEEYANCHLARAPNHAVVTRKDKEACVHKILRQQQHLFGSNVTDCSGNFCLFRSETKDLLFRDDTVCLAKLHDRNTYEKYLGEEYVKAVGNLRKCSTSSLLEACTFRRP
# transferrin [13] = target: T5, transferrin; assay: as above; remark: listed apart in the source
# transferrin [14] = target: T5, transferrin; assay: SPR (Biacore T100), transferrin immobilised (9758 RU), steady state affinity fit
# Description: (§4) Affinity plots were generated for each peptide and fit using a steady state affinity model.
# transferrin [15] = target: T5, transferrin; assay: SPR (Biacore T100), transferrin immobilised
# Description: as §4
# transferrin [16] = target: T5, transferrin; assay: affinity characterisation of Example 29 (SPR; format for the purified peptides not stated)
# transferrin [17] = target: T5, transferrin; assay: reference TRF26 lead peptide
# transferrin [18] = target: T5, transferrin; assay: reference TRF26 lead peptide; remark: listed apart in the source
# transferrin [19] = target: T5, transferrin; assay: affinity characterisation of Example 29 (SPR; format for the purified peptides not stated); remark: listed apart in the source
# [20] = target: T4, Tumor Necrosis Factor-alpha; assay: SPR (Biacore T-100), TNF-α amine-coupled to a CM5 chip, synbody concentration series
# Protocol: Candidate TNF-α binding synbodies were screened by surface plasmon resonance (SPR) on a Biacore T-100 SPR instrument to verify binding for TNF-α. A CM5 chip was activated using standard amine coupling chemistry and TNF-α was immobilized. Each synbody was prepared in HBS—N buffer with excess carboxymethyl dextran added to the running buffer to minimize non-specific binding to the chip surface.
# transferrin [21] = target: T5, transferrin; assay: SPR (Biacore A-100), biotinylated transferrin captured on Neutravidin, unpurified peptide injected for 60 s; remark: listed apart in the source
# transferrin [22] = target: T5, transferrin; assay: as above; remark: listed apart in the source
# transferrin [23] = target: T5, transferrin; assay: as above; remark: listed apart in the source
# transferrin [24] = target: T5, transferrin; assay: as above; remark: listed apart in the source
# transferrin [25] = target: T5, transferrin; assay: as above; remark: listed apart in the source
# transferrin [26] = target: T5, transferrin; assay: as above; remark: listed apart in the source
# transferrin [27] = target: T5, transferrin; assay: as above; remark: listed apart in the source
# Gal80 = target: T6, Gal80 (UniProt P04387 1-435, limits assumed); assay: SPR, gal80 immobilised on the chip; Kd from on and off rates
# T6 construct: Cy3/Cy5 labelled on arrays, immobilised for SPR and ELISA
# T6 sequence (looked up): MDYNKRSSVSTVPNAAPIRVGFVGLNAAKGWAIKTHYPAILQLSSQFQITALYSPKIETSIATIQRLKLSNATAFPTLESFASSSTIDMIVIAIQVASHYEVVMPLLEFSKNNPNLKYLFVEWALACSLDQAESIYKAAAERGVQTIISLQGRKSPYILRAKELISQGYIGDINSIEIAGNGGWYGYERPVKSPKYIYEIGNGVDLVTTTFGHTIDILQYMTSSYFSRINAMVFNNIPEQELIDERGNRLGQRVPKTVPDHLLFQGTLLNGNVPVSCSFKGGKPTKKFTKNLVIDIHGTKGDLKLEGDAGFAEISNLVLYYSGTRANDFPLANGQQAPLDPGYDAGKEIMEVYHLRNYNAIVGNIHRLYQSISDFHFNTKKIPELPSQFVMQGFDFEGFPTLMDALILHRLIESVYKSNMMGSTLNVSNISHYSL
binder,measurement,setting,value
B1,binding result,[1],binds
same,binding result,GRP58,binds
same,binding result,PSMA3,binds
FERDPLMMPWSFLQSRQGSC [TNF1 lead peptide],Binding ΔG,[2],-5.21 kcal/mol
same,Kd,[2],160 µM
same,koff,[3],1.6 s⁻¹
FERSYLKMPWKFLQSRQGSC [TNF1-opt (D4S+P5Y+M7K+S11K quadruple mutant)],Kd,[4],1.1 µM
same,Kd Fold-Change Relative to Lead,[5],100 fold
same,Kd,[6],0.7 µM
same,Kd,[7],1.6 µM
same,Observed Binding ΔG,[7],-7.97 kcal/mol
same,difference in observed binding energy relative to D4S+P5Y+S11K,[8],-0.94 kcal/mol
same,difference in observed binding energy relative to P5Y+M7K,[8],-1.73 kcal/mol
same,difference in observed binding energy relative to P5Y+S11K,[8],-1.66 kcal/mol
same,koff,[9],0.2 s⁻¹
B2,Kd Fold-Change Relative to Lead,[5],23 fold
same,Fold Change (Ka mutant / Ka TNF1),[10],23 fold
same,Kd,[7],7 µM
same,Observed Binding ΔG,[7],-7.03 kcal/mol
same,difference in observed binding energy relative to P5Y+S11K,[8],-0.72 kcal/mol
FERYPLMMPWKFLQSRQGSC [TNF1 D4Y+S11K double mutant],Kd Fold-Change Relative to Lead,[5],17 fold
same,Observed Binding ΔG,[7],-6.67 kcal/mol
same,Kd,[11],9.3 µM
DFLWSKSGILSHASWNHGSC (Unpurified library peptide) [peptide of FIG. 60D],binding result,transferrin [12],binds
DNSRRSAKQRIFMHVDLGSC (Unpurified library peptide) [peptide of FIG. 60G],binding result,transferrin [13],binds
B3,Kd,transferrin [14],11.6 µM
same,fold improvement in affinity relative to TRF26,transferrin [15],> 10 fold
B4,Kd,transferrin [16],0.5 µM
same,Kd Fold-Change Relative to Lead,transferrin [17],190 fold
AHKVVYQRQIRHAYNRYGSC [TRF26 P6Y point-mutant],Kd Fold-Change Relative to Lead,transferrin [18],10 fold
same,Binding ΔG,transferrin [19],-6.93 kcal/mol
same,Kd,transferrin [19],8.6 µM
AHKVVPQRQIRFAYNRYGSC [TRF26 H12F point-mutant],Kd Fold-Change Relative to Lead,transferrin [18],8.8 fold
same,Binding ΔG,transferrin [19],-6.85 kcal/mol
same,Kd,transferrin [19],9.7 µM
B5,binding result,[20],no binding
WMDDIDAPQDEWWVFHHGSC (Unpurified library peptide) [peptide of FIG. 60C],binding result,transferrin [21],binds
DRDTPWETTNKTEEGIEGSC (Unpurified library peptide) [peptide of FIG. 60J],binding result,transferrin [22],binds
KMRTITYYHLQAILKQRGSC (Unpurified library peptide) [peptide of FIG. 60F],binding result,transferrin [23],binds
AMMRMDMAGLNKIVFHQGSC (Unpurified library peptide) [peptide of FIG. 60I],binding result,transferrin [24],binds
QENDQQSFGLGGMMGQAGSC (Unpurified library peptide) [peptide of FIG. 60K],binding result,transferrin [25],binds
B6,binding result,transferrin [26],binds
TEDNDYMVVSMVVTMEPGSC (Unpurified library peptide) [peptide of FIG. 60L],binding result,transferrin [27],binds
B7,Kd,Gal80,0.982 µM
